Source: patent US7517654B2, “Peptide and a derivative thereof promoting cell adhesion and spreading” (Seoul National University Industry Foundation, priority 2004, dated 2009)
“Also recorded” adds a separate entry of the source.

B1: rLG3: recombinant His6-tagged LG3 domain, residues 1128-1364 of human laminin α3 chain (protein, listed as Homo sapiens)
chain: VRLNDTVGVTKKCSEDWKLVRSASFSRGGQLSFTDLGLPPTDHLQASFGFQTFQPSGILLDHQTWTRNLQVTLEDGYIELSTSDSGGPIFKSPQTYMDGLLHYVSVISDNSGLRLLIDDQLLRNSKRLKHISSSRQSLRLGGSNFEGCISNVFVQRLSLSPEVLDLTSNSLKRDVSLGGCSLNKPPFLMLLKGSTRFNKTKTFRINQLLQDTPVASPRSVKVWQDACSPLPKTQANH
modifications: His6 tag
notes: recombinant His6-tagged LG3 domain, residues 1128-1364 of human laminin α3 chain

How the values were obtained:
[1] = tested on: HOK-16B cells; assay: Cell spreading activity assay on coated plates; format: cell-based, human; conditions: spreading cells divided by total bound cells, coated plates
Procedure: To identify spreading cells, attached cells were fixed with 10% formalin in PBS for 15 min, rinsed twice with PBS, and stained with 0.005% crystal violet for 1 h. The plates were then gently rinsed with DDW. To ensure a representative count, each plate was divided into quarters, two fields per quarter were photographed using an Olympus BX51 microscope at 100× magnification. Cells that had adopted a flattened, polygonal shape, with filopodia-and lamellipodia-like extensions were considered to be spreading cells. In contrast, cells that resisted being washed and remained tethered to the plate surface were considered to be non-spreading cells.
To examine the adhesion activity of peptide P4 in detail, the inventors examined whether the adherent cells were tethered to the substratum or spread over the substratum. The BSA and rLG3 were used as the negative control and positive control, respectively, the percentage of cells displaying a spreading morphology was quantified by dividing the number of spreading cells by the total number of bound cells.

[2] = molecular target: T1, integrin α3β1 (Homo sapiens, UniProt P05556+P26006); assay: Adhesion activity inhibition assay with function-blocking anti-integrin mAbs or EDTA; format: cell-based; conditions: 25 μg/ml rLG3 or 10 μg/well peptide P4 coating; for inhibition of cell adhesion activity by anti-integrin β1 antibody: 5 μg/ml mAb (6S6) preincubation 30 min; for inhibition of cell adhesion activity by anti-integrin α3 antibody: 5 μg/ml mAb (P1B5) preincubation 30 min; for effect of EDTA on cell adhesion: 5 mM EDTA preincubation 30 min
T1 construct: it is confirmed that the HOK-16B cells expressed several integrins, including α3β1, α6β1, and α6β4; endogenous in cells; host or cells: HOK-16B (HPV-16-immortalized human oral keratinocytes)
Procedure: To identify the receptor of the HOK-16B cells for rLG3 protein and peptide P4, 5 μg/ml of mAbs to different types of integrins or 5 mM EDTA were preincubated individually with HOK-16B cells in 0.5 ml incubation solution (2×10^5 cells/ml) for 30 min at 37° C. The preincubated cells were then transferred onto plates precoated with either 25 μg/ml of rLG3 protein or 10 μg/well of peptide P4 and incubated for 1 h at 37° C. Attached cells were then quantified by the cell adhesion assay described above in the Experimental Example 2, and cell adhesion activity inhibition rate were measured.
Meanwhile, the ligand-integrin interaction were known to require a divalent cation. To determine the role of cations in the interaction, the present inventors examined the effect of metal-chelating reagent, EDTA, on HOK-16B cell adhesion to the rLG3- and peptide P4-coated plates. HOK-16B cells were preincubated with 5 mM EDTA or 5 μg/ml function-blocking mAbs (Chemicon Temecula, CA) against integrin α3 (P1B5), β1 (6S6), α6 (NK I-GoH3) subunits for 30 min at 37° C. and plated on 25 μg/ml rLG3-precoated plate, and then cultured for 1 hr. After the unbound cells were washed off, the adherent cells were fixed to stain with crystal violet, and the stained cells were analyzed. The average adhesion activity of control cultures (HOK-16B cells preincubated without EDTA or integrin antibodies) were considered 100%.

[3] = tested on: FAK; assay: FAK phosphorylation assay (immunoblot, p-FAK/t-FAK); format: cell-based, human; conditions: 15 min
Procedure: The FAK phosphorylation assays were performed according to a method of Shang et al. (J. Biol. Chem., 276:33045, 2001). In detail, the HOK-16B cells were trypsinized, washed, and kept in suspension in serum-free KGM with 0.1% BSA for 1 h at 37° C. The 60-mm culture dishes were coated with laminin (5 μg/ml) or rLG3 protein (25 μg/ml) at 4° C. overnight. Peptides (50 μg/60-mm culture dish) were also coated on dishes by drying overnight. For the adherent FAK assay, 1×10^6 cells were plated onto uncoated, laminin-coated, rLG3 protein-coated, or various peptide-coated dishes and allowed to attach for 15, 30, or 60 min at 37° C. in an atmosphere of 5% CO2. At the end of the incubation, cells were washed with ice-cold PBS and lysed in RIPA buffer (50 mM Tris [pH 7.4], 150 mM NaCl, 1% Nonidet P-40, 0.5% Na-deoxycholate, 1 mM EDTA, 0.1% SDS, 2 mM Na3VO4, 1 mM glycerol phosphate, 1 mM PMSF, and protease inhibitor cocktail). Lysates were clarified by centrifugation at 12,000×g for 10 min at 4° C. to isolate cytosolic extracts.
The cytosolic extracts were denatured using SDS sample buffer [50 mM Tris-HCl (pH 6.8), 2% SDS, 10% glycerol, 0.1% bromophenol blue, 100 mM β-mercaptoethanol] and separated on an 8% SDS-polyacrylamide gel. Electrophoretic transfer of SDS-PAGE gel separated with protein to a nitrocellulose membrane was followed by immnoblotting with polyclonal anti-FAK antibodies to determine the total FAK level or immnoblotting with polyclonal anti-FAK [pY^397], [pY^407], [pY^576], [pY^577] or [pY^861] antibodies to determine the extent of tyrosine phosphorylation. The relative fold induction of FAK phosphorylation, defined as an increase in FAK phosphorylation of a sample relative to its corresponding background level (i.e., cells plated on plastic) was determined as follows: First, the densitomerty intensity of the phosphorylated FAK (p-FAK) and the total FAK (t-FAK) signals from the Western blots were measured with a LAS-1000plus (Fuji photo film, Japan). The ratio of p-FAK to t-FAK (p-FAK/t-FAK) for each sample was then calculated to correct for differences in protein loading. This ratio was normalized to the p-FAK/t-FAK ratio of the negative controls to obtain the relative fold induction of FAK phosphorylation.
HOK-16B cells isolated by trypsinization were suspended for 1 hr, and kept in suspension (Sus), or replated on 60-mm culture dishes coated with or without laminin (5 μg/ml). The cells were kept for 15, 30, or 60 min for being attached on plates, then cell lysates were analyzed by immunoblot analysis with anti-FAK p-Y397 antibody (Biosource, Camariollo, Calif.). […] This effect was observed within 15 min and peaked at 15 min after exposure to the laminin-coated plate (FIG. 8A).
Therefore, the extent of FAK phosphorylation at Tyr-397,-407,-576, -577, and -861 was investigated in HOK-16B cells cultured on plates coated with laminin (5 μg/ml), rLG3 (25 μg/ml), or peptides P1-P5 (50 μg/60-mm dish) for 15 min. The lysates were immnoblotted with polyclonal anti-FAK, p-Y397, p-Y407, p-Y576, p-Y577 or p-Y861 antibodies (Biosoucce, Camariollo, Calif.), and the total FAK level was detected using anti-FAK antibodies (Upstate Biotechnology, Lake Placid, N.Y. The ratio of p-FAK to t-FAK (p-FAK/t-FAK) for each sample was then calculated to correct for differences in protein loading. This ratio was normalized to the p-FAK/t-FAK ratio of the negative controls (cells on plates) to obtain the relative fold induction of FAK phosphorylation. As a result, the extent of FAK phosphorylation at Tyr-397 cultured on the laminin-coated or rLG3 protein-coated plates increased 16.2- and 8.2-fold compared with the untreated control (FIG. 8B).

T1 sequence (P26006 33-872 limits assumed): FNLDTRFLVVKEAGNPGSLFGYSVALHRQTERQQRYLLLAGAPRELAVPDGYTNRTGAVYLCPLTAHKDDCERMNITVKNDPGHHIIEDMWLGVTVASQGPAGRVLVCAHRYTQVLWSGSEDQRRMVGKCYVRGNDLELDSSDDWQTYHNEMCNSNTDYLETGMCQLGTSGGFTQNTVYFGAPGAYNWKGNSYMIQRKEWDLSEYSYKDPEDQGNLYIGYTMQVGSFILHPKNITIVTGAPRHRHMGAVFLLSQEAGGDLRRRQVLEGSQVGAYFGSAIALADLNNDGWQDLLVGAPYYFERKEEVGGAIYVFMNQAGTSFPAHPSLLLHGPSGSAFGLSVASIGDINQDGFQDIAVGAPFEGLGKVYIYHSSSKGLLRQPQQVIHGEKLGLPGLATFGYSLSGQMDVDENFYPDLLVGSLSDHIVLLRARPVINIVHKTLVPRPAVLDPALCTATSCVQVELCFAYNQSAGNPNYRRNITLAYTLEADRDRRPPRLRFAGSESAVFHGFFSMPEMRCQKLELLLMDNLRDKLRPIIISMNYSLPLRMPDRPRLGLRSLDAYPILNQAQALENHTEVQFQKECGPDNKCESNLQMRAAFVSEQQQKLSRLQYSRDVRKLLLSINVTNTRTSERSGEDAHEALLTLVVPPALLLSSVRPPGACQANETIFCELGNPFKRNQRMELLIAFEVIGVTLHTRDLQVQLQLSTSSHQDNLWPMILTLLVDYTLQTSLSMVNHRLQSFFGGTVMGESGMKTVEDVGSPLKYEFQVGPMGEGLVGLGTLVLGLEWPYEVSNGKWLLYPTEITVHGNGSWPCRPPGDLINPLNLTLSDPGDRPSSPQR
T1 sequence (P26006 873-1051 limits assumed): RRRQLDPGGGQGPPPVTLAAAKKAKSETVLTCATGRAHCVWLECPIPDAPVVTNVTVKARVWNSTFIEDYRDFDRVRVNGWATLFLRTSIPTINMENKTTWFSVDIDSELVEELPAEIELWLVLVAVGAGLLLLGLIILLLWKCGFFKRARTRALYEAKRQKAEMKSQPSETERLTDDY
T1 sequence (P05556 21-798): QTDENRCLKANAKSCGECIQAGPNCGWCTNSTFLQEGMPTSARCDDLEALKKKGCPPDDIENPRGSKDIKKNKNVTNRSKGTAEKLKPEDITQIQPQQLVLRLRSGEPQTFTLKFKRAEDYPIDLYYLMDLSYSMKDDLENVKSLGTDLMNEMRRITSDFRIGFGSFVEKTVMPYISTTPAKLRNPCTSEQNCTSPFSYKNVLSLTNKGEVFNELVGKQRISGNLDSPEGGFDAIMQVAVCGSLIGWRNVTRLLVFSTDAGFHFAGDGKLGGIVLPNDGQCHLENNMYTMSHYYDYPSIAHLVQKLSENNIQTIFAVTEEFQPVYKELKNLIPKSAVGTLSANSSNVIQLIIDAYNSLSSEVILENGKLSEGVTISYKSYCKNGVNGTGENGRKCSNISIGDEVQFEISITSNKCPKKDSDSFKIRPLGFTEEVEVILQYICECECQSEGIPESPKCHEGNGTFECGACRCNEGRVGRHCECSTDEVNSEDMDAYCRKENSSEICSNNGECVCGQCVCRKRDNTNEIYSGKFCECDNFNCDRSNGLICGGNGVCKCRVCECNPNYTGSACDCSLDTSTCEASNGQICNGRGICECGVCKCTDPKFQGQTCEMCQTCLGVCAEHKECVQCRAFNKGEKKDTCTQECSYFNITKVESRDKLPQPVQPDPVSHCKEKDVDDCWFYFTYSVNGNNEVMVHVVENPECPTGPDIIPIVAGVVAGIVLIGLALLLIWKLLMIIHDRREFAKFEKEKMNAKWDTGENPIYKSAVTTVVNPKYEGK

| Molecule | HOK-16B cells displaying a spreading morphology [1] [%] | inhibition of cell adhesion activity by anti-integrin β1 antibody [2] [%] | inhibition of cell adhesion activity by anti-integrin α3 antibody [2] [%] | effect of EDTA on cell adhesion [2] | FAK phosphorylation level at Tyr-577 ([3]; HOK-16B cells on coated dishes, peptides 50 μg/60-mm dish) | changes of the FAK phosphorylation levels at Tyr-407, -576 and -861 ([3]; HOK-16B cells on coated dishes) | increase of FAK phosphorylation at Tyr-397 compared with the untreated control ([3]; HOK-16B cells, laminin 5 μg/ml or rLG3 25 μg/ml coating, p-FAK/t-FAK normalized) [fold] |
| --- | --- | --- | --- | --- | --- | --- | --- |
| PPFLMLLKGSTR [peptide P4] | 35 | 54 | 49 | decrease in cell adhesion | higher than that in the cells spread on the other peptides; also recorded: lower than that on laminin | – | – |
| B1 | 47 | 71 | 71 | almost completely inhibited | – | not observed | 8.2 |
